According to US20130143793A1 (ZEALAND PHARMA A S, published 2013):
Bridge positions count the residues as written; N and C are the ends. Square brackets hold non-standard residues; d marks the D form. Ends that are not written are not given here. Orn = NCCC[C@H](N)C(=O)O

T1: human CCK-B receptor (human, UniProt P32239 1-447)
T1 sequence (looked up): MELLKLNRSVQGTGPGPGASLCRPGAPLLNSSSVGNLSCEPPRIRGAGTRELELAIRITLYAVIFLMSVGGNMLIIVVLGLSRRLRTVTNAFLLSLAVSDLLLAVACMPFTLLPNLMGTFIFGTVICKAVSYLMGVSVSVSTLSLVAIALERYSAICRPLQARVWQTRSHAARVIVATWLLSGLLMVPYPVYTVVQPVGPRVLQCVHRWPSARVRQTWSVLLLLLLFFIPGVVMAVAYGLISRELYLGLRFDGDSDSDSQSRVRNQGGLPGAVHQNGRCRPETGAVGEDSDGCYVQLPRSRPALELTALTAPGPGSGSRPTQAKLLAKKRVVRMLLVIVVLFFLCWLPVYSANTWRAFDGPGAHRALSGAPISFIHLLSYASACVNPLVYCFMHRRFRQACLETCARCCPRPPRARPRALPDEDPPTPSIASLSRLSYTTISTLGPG

B1: [Glu9,Leu14,Phe25,Tyr13]Exendin-4(1-27)-Peg3-Orn-[Leu2]Gastrin4 (peptide)
peptide: HGEGTFTSELSKYLEEEAVRLFIEFLK[Peg3][Orn]WLDF-NH2
B2: [Glu9,Leu14,Phe25,Tyr13]Exendin-4(1-27)-Peg3-Peg3-[Leu4]Gastrin6 (peptide)
peptide: HGEGTFTSELSKYLEEEAVRLFIEFLK[Peg3][Peg3]YGWLDF-NH2
B3: [Glu9,Leu14,Phe25,Tyr13]Exendin-4(1-27)-Orn-Peg3-[Leu2]Gastrin4 (peptide)
peptide: HGEGTFTSELSKYLEEEAVRLFIEFLK[Orn][Peg3]WLDF-NH2
B4: Side chain-cyclo([Lys20,Glu24]Exendin-4(1-28)-Peg3-Peg3-[Leu4]Gastrin6 (peptide)
peptide: HGEGTFTSDLSKQMEEEAVKLFIEWLKN[Peg3][Peg3]YGWLDF-NH2
modifications: lactam 20-24
B5: [Arg12,27,Leu14,Lys16,Phe25,Tyr13]Exendin-4(1-27)-Peg3-[Leu4]Gastrin6 (peptide)
peptide: HGEGTFTSDLSRYLEKEAVRLFIEFLR[Peg3]YGWLDF-NH2
B6: [Arg12,27,Leu14,Lys20,Phe25,Tyr13]Exendin-4(1-27)-Peg3-[Leu4]Gastrin6 (peptide)
peptide: HGEGTFTSDLSRYLEEEAVKLFIEFLR[Peg3]YGWLDF-NH2
B7: [Orn20]Exendin-4(1-28)-Peg3-Peg3-[Leu4]Gastrin6 (peptide)
peptide: HGEGTFTSDLSKQMEEEAV[Orn]LFIEWLKN[Peg3][Peg3]YGWLDF-NH2
B8: Exendin-4(1-27)-[Leu4]Gastrin11 (peptide)
peptide: HGEGTFTSDLSKQMEEEAVRLFIEWLKEEEEAYGWLDF
modifications: C-terminal amide
B9: [Glu9,Leu14,Phe25,Tyr13]Exendin-4(1-27)-[Leu2]Gastrin4 (peptide)
peptide: HGEGTFTSELSKYLEEEAVRLFIEFLKWLDF-NH2
B10: [Glu9,Leu14,Phe25,Tyr13]Exendin-4(1-27)-Peg3-[Leu2]Gastrin4 (peptide)
peptide: HGEGTFTSELSKYLEEEAVRLFIEFLK[Peg3]WLDF-NH2
B11: [Tyr13,Leu14]Exendin-4(1-27)-Peg3-Peg3-[Leu4]Gastrin6 (peptide)
peptide: HGEGTFTSDLSKYLEEEAVRLFIEWLK[Peg3][Peg3]YGWLDF-NH2
B12: Side chain-cyclo([Glu16,Lys20]Exendin-4(1-28)-Peg3-Peg3-[Leu4]Gastrin6 (peptide)
peptide: HGEGTFTSDLSKQMEEEAVKLFIEWLKN[Peg3][Peg3]YGWLDF-NH2
modifications: lactam 16-20
B13: [Glu9,Leu14,Phe25,Tyr13]Exendin-4(1-27)-Orn-Orn-[Leu2]Gastrin4 (peptide)
peptide: HGEGTFTSELSKYLEEEAVRLFIEFLK[Orn][Orn]WLDF-NH2
modifications: N-terminus assumed
SMILES: CC[C@H](C)[C@H](NC(=O)[C@H](Cc1ccccc1)NC(=O)[C@H](CC(C)C)NC(=O)[C@H](CCCNC(=N)N)NC(=O)[C@@H](NC(=O)[C@H](C)NC(=O)[C@H](CCC(=O)O)NC(=O)[C@H](CCC(=O)O)NC(=O)[C@H](CCC(=O)O)NC(=O)[C@H](CC(C)C)NC(=O)[C@H](Cc1ccc(O)cc1)NC(=O)[C@H](CCCCN)NC(=O)[C@H](CO)NC(=O)[C@H](CC(C)C)NC(=O)[C@H](CCC(=O)O)NC(=O)[C@H](CO)NC(=O)[C@@H](NC(=O)[C@H](Cc1ccccc1)NC(=O)[C@@H](NC(=O)CNC(=O)[C@H](CCC(=O)O)NC(=O)CNC(=O)[C@@H](N)Cc1c[nH]cn1)[C@@H](C)O)[C@@H](C)O)C(C)C)C(=O)N[C@@H](CCC(=O)O)C(=O)N[C@@H](Cc1ccccc1)C(=O)N[C@@H](CC(C)C)C(=O)N[C@@H](CCCCN)C(=O)N[C@@H](CCCN)C(=O)N[C@@H](CCCN)C(=O)N[C@@H](Cc1c[nH]c2ccccc12)C(=O)N[C@@H](CC(C)C)C(=O)N[C@@H](CC(=O)O)C(=O)N[C@@H](Cc1ccccc1)C(N)=O
B14: [Glu9,Leu14,Phe25,Tyr13]Exendin-4(1-27)-Peg3-[Leu4]Gastrin6 (peptide)
peptide: HGEGTFTSELSKYLEEEAVRLFIEFLK[Peg3]YGWLDF-NH2
B15: [Leu14,Phe25]Exendin-4(1-27)-Peg3-Peg3-[Leu4]Gastrin6 (peptide)
peptide: HGEGTFTSDLSKQLEEEAVRLFIEFLKXXYGWLDF
modifications: Peg3-Peg3 linker; C-terminal amide
B16: [Leu14,Phe25,Tyr13]Exendin-4(1-27)-Peg3-Peg3-[Leu4,Phe3]Gastrin6 (peptide)
peptide: HGEGTFTSDLSKYLEEEAVRLFIEFLK[Peg3][Peg3]YGFLDF-NH2
B17: [Glu9,Leu14,Phe25,Tyr13]Exendin-4(1-27)-Orn-Peg3-[Leu4]Gastrin6 (peptide)
peptide: HGEGTFTSELSKYLEEEAVRLFIEFLK[Orn][Peg3]YGWLDF-NH2
B18: [Glu9,Leu14,Phe25,Tyr13]Exendin-4(1-27)-Orn-Orn-[Leu4]Gastrin6 (peptide)
peptide: HGEGTFTSELSKYLEEEAVRLFIEFLK[Orn][Orn]YGWLDF-NH2
modifications: N-terminus assumed
SMILES: CC[C@H](C)[C@H](NC(=O)[C@H](Cc1ccccc1)NC(=O)[C@H](CC(C)C)NC(=O)[C@H](CCCNC(=N)N)NC(=O)[C@@H](NC(=O)[C@H](C)NC(=O)[C@H](CCC(=O)O)NC(=O)[C@H](CCC(=O)O)NC(=O)[C@H](CCC(=O)O)NC(=O)[C@H](CC(C)C)NC(=O)[C@H](Cc1ccc(O)cc1)NC(=O)[C@H](CCCCN)NC(=O)[C@H](CO)NC(=O)[C@H](CC(C)C)NC(=O)[C@H](CCC(=O)O)NC(=O)[C@H](CO)NC(=O)[C@@H](NC(=O)[C@H](Cc1ccccc1)NC(=O)[C@@H](NC(=O)CNC(=O)[C@H](CCC(=O)O)NC(=O)CNC(=O)[C@@H](N)Cc1c[nH]cn1)[C@@H](C)O)[C@@H](C)O)C(C)C)C(=O)N[C@@H](CCC(=O)O)C(=O)N[C@@H](Cc1ccccc1)C(=O)N[C@@H](CC(C)C)C(=O)N[C@@H](CCCCN)C(=O)N[C@@H](CCCN)C(=O)N[C@@H](CCCN)C(=O)N[C@@H](Cc1ccc(O)cc1)C(=O)NCC(=O)N[C@@H](Cc1c[nH]c2ccccc12)C(=O)N[C@@H](CC(C)C)C(=O)N[C@@H](CC(=O)O)C(=O)N[C@@H](Cc1ccccc1)C(N)=O
B19: [Glu9,Leu14,Phe25,Tyr13]Exendin-4(1-27)-Peg3-Orn-[Leu4]Gastrin6 (peptide)
peptide: HGEGTFTSELSKYLEEEAVRLFIEFLK[Peg3][Orn]YGWLDF-NH2
B20: Exendin-4(1-28)-[Thr4]Gastrin6 (peptide)
peptide: HGEGTFTSDLSKQMEEEAVRLFIEWLKNYGWTDF
modifications: C-terminal amide
B21: [Leu14]Exendin-4(1-28)-[1Nal3,Leu4]Gastrin6 (peptide)
peptide: HGEGTFTSDLSKQLEEEAVRLFIEWLKNYGXLDF
modifications: 1Nal (1-naphthylalanine) at position 3 of the Gastrin6 moiety; C-terminal amide
B22: [Leu14]Exendin-4(1-28)-[Leu4,[3-(3-Pyridyl)-Ala]6]Gastrin6 (peptide)
peptide: HGEGTFTSDLSKQLEEEAVRLFIEWLKNYGWLDX
modifications: 3-(3-Pyridyl)-alanine at position 6 of the Gastrin6 moiety; C-terminal amide
B23: Exendin-4(1-28)-[Phe4]Gastrin6 (peptide)
peptide: HGEGTFTSDLSKQMEEEAVRLFIEWLKNYGWFDF
modifications: C-terminal amide
B24: Exendin-4(1-28)-[Leu4]Gastrin6 (peptide)
peptide: HGEGTFTSDLSKQMEEEAVRLFIEWLKNYGWLDF
modifications: C-terminal amide
B25: [Leu14]Exendin-4(1-28)-[Nle4]Gastrin6 (peptide)
peptide: HGEGTFTSDLSKQLEEEAVRLFIEWLKNYGWXDF
modifications: Nle at position 4 of the Gastrin6 moiety; C-terminal amide
B26: [Arg12,Leu14,Phe25,Tyr13]Exendin-4(1-27)-Peg3-[Leu4]Gastrin6 (peptide)
peptide: HGEGTFTSDLSRYLEEEAVRLFIEFLK[Peg3]YGWLDF-NH2
B27: [Asp28]Exendin-4(1-28)-Peg3-Peg3-[Leu4]Gastrin6 (peptide)
peptide: HGEGTFTSDLSKQMEEEAVRLFIEWLKDXXYGWLDF
modifications: Peg3-Peg3 linker; C-terminal amide
B28: [Glu9,Leu14,Phe25,Tyr13]Exendin-4(1-27)-[Leu4]Gastrin6 (peptide)
peptide: HGEGTFTSELSKYLEEEAVRLFIEFLKYGWLDF-NH2
B29: [Arg12,27,Leu14,Lys24,Phe25,Tyr13]Exendin-4(1-27)-Peg3-[Leu4]Gastrin6 (peptide)
peptide: HGEGTFTSDLSRYLEEEAVRLFIKFLR[Peg3]YGWLDF-NH2
B30: [Tyr13,Leu14,Phe25]Exendin-4(1-27)-Peg3-Peg3-[Leu4]Gastrin6 (peptide)
peptide: HGEGTFTSDLSKYLEEEAVRLFIEFLK[Peg3][Peg3]YGWLDF-NH2
B31: [Tyr13]Exendin-4(1-28)-Peg3-Peg3-[Leu4]Gastrin6 (peptide)
peptide: HGEGTFTSDLSKYMEEEAVRLFIEWLKN[Peg3][Peg3]YGWLDF-NH2
B32: [Arg27,Leu14,Phe25,Tyr13]Exendin-4(1-27)-Peg3-[Leu4]Gastrin6 (peptide)
peptide: HGEGTFTSDLSKYLEEEAVRLFIEFLR[Peg3]YGWLDF-NH2
B33: [Tyr13,Phe25]Exendin-4(1-27)-Peg3-Peg3-[Leu4]Gastrin6 (peptide)
peptide: HGEGTFTSDLSKYMEEEAVRLFIEFLK[Peg3][Peg3]YGWLDF-NH2
B34: [Glu9,Leu14,Phe25,Tyr13]Exendin-4(1-27)-Peg3-Peg3-[Leu4,Phe3]Gastrin6 (peptide)
peptide: HGEGTFTSELSKYLEEEAVRLFIEFLK[Peg3][Peg3]YGFLDF-NH2

How the values were obtained:
[1] = biological target: T1, human CCK-B receptor; test: cell-based or functional assay
[2] = biological target: human GLP-1 receptor (human, UniProt P43220 24-463); test: cell-based or functional assay

Binder	hCCK-B R EC50 (p-ERK) [1] [nM]	hGLP-1 R EC50 (cAMP) [2] [nM]
B1	51	0.041
B2	20	0.046
B3	10	0.046
B4	4	0.032
B5	26	0.17
B6	26	0.058
B7	15	0.038
B8	4.3	0.1
B9	211	1.2
B10	13	0.06
B11	8.4	0.05
B12	–	0.026
B13	860	0.11
B14	54	–
B15	7.9	0.026
B16	1200	–
B17	100	0.12

Binder	hCCK-B R EC50 (p-ERK) [1] [nM]	hGLP-1 R EC50 (cAMP) [2] [nM]
B18	16	0.11
B19	8.8	0.087
B20	58	0.044
B21	270	0.04
B22	20	–
B23	140	0.044
B24	14	0.061
B25	24	0.052
B26	14	0.079
B27	3.3	0.061
B28	30	0.11
B29	36	0.13
B30	–	0.044
B31	12	0.046
B32	18	0.068
B33	8.4	0.035
B34	1300	0.032
